Data taken from the supplement of paper PMC10567573.
± gives the standard deviation.

Assay: protein stability index of a GFP-peptide fusion (GPS, HEK-293T) (PSI 1-6); higher = more stable
[1] = treatment: DMSO, c terminus: a fixed tail appended
[2] = treatment: MLN4924 1 uM, 8 h, c terminus: a fixed tail appended
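Further: 24-mer peptide tiles fused after GFP, lentivirally expressed, FACS-sorted into six equal bins by GFP/DsRed ratio, decoded by Illumina sequencing, PSI is the read-weighted mean bin number.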

Sequence | protein stability index [1] | protein stability index [2] | protein stability index (treatment: DMSO, c terminus: native) | protein stability index (treatment: MLN4924 1 uM, 8 h, c terminus: native)
PALDSLAYEYEREGLYEQAFQLLR [TRADD] | 2.64 ± 0.15 | 2.9 ± 0.29 | – | –
PANLYVRELREVRRVPPRFSIPPT [PTPRD] | 2.95 ± 0.2 | 3.05 ± 0.41 | – | –
PAPAFQPFFFTGAFPFNMQELVLK [ANKRD40] | 2.07 ± 0.82 | 2.77 ± 1.2 | – | –
PAPSPAKEERKTEVVMNSQQTPVG [PALM] | 5.52 ± 0.19 | 5.46 ± 0.13 | – | –
PASPERDYSPYYKTIEELRDKILT [KRT13] | 3.349 ± 0.006 | 3.45 ± 0.31 | – | –
PATTVTSPNSTPAKTIDTSPPVDL [SNAP91] | 5.25 ± 0.23 | 5.25 ± 0.19 | – | –
PCLCLSWEEAQSPANCPACREPSP [TRIM43] | 4.74 ± 0.24 | 4.79 ± 0.15 | – | –
PCSKAVMSQALKATFSGFKKEQRR [ETS2] | 3.15 ± 0.21 | 3.27 ± 0.28 | – | –
PDPGPSPEASHLRFRRFRFQEAAG [ZNF263] | 3.16 ± 0.13 | 3.23 ± 0.31 | – | –
PEASDQEEHLSPLDFLHSANFSLG [RNF180] | 4.66 ± 0.17 | 4.64 ± 0.36 | – | –
PEGSVSGSQPNSGLALESSSGLQD [NFE2L1] | 5.46 ± 0.2 | 5.51 ± 0.13 | – | –
PEKIGTRFLLYTNENPNNFQILLL [PNLIPRP1] | 2.26 ± 0.46 | 2.48 ± 0.46 | – | –
PELLVGDTQYGSSVDIWAIGCVFA [CDKL4] | 2.14 ± 0.57 | 2.73 ± 0.98 | – | –
PETVRMVLSNMEKLFCIPVHGIRS [IMPA1] | 2.65 ± 0.27 | 2.94 ± 0.3 | – | –
PFKAYLDVDITLSSEAFHNYMNAA [RTN3] | 2.92 ± 0.44 | 2.71 ± 0.72 | – | –
PGPSWVRGSGPSVLSRLQDAAVVR [ALKBH7] | 3.58 ± 0.37 | 3.78 ± 0.23 | – | –
PGSSSGPVLGSSSGAGHGSGSGSG [SPAG8] | 4.87 ± 0.29 | 5.14 ± 0.18 | – | –
PHGTLRVCTISSTGPLQPQPKKPE [PKD2L1] | 4.42 ± 0.27 | 4.5 ± 0.3 | – | –
PHPDLPAEEKEQLLHNDEYQETMV [USP39] | 5.35 ± 0.24 | 5.55 ± 0.21 | – | –
PIKLELLEPKANLQAALQVLELHH [VPS39] | 2.36 ± 0.41 | 2.41 ± 0.22 | – | –
PILKRLERPQDRDTPVQNKRRRSV [CDC25B] | 5.03 ± 0.49 | 5.11 ± 0.16 | – | –
PKEQLSTSFQWVTKWVDYSNKYGF [PLK2] | 2.29 ± 0.45 | 2.46 ± 0.48 | – | –

Sequence | protein stability index [1] | protein stability index [2] | protein stability index (treatment: DMSO, c terminus: native) | protein stability index (treatment: MLN4924 1 uM, 8 h, c terminus: native)
PKKLLNPVKASRSHQELHRELLMN [FAM107A] | 3.17 ± 0.21 | 3.19 ± 0.29 | – | –
PLDDALLSFAHANCTLIISYQKPK [DPCD] | 2.17 ± 0.2 | 2.22 ± 0.21 | – | –
PLLKLACTNTYVTGLSMIANGGAI [OR4A15] | 2.15 ± 0.58 | 2.21 ± 0.72 | – | –
PLPESLASLHPSVSPGSPPPPLPN [PLAGL1] | 5.01 ± 0.27 | 4.95 ± 0.16 | – | –
PLSDDHDEKYGVPSLEELGFDTDG [CRY1] | 5.58 ± 0.18 | 5.62 ± 0.18 | – | –
PLSKSSPATTVTSPNSTPAKTIDT [SNAP91] | 5.18 ± 0.19 | 5.18 ± 0.12 | – | –
PLSSDIQVITQTGVPGQPLNFKAE [PTPRD] | 4.66 ± 0.17 | 4.51 ± 0.26 | – | –
PLVYKAIQQGINAVNQEAMNNAQR [ACSBG2] | 3.331 ± 0.031 | 3.45 ± 0.23 | – | –
PNPGFSMLDFLSERPWIKRMIFKL [APMAP] | 2.05 ± 0.2 | 2.36 ± 0.66 | – | –
PPEQGKIFIARRSLLDELLEVDHI [SOAT1] | 2.76 ± 0.2 | 2.93 ± 0.32 | – | –
PPPLDQYVKFDAVSGDYYPIIYFN [CLPTM1] | 2.32 ± 0.14 | 2.37 ± 0.44 | – | –
PPRGAVERHSDLPPLNPTSWWADL [SPNS1] | 3.28 ± 0.29 | 3.34 ± 0.29 | – | –
PPRKSGSFHSSGEKQKQPRWREGT [PBXIP1] | 4.4 ± 0.068 | 4.38 ± 0.3 | – | –
PSAILRTPESTKPGPVCQPPVSQS [ANKRD40] | 4.59 ± 0.23 | 4.45 ± 0.18 | – | –
PSLGRVLPDPREACGSSSYVASIV [RBMY1A1] | 2.63 ± 0.36 | 2.94 ± 0.21 | – | –
PSLPSCLCSFLLLLLLQVSSSYAG [MOG] | 2.44 ± 0.048 | 2.77 ± 0.34 | – | –
PSNKAPLLVLCEDHRGRMVKHQCC [EHMT1] | 3.13 ± 0.27 | 3.37 ± 0.34 | – | –
PSPAPAVAAAAAATTAATAAATTT [SNAP91] | 5.33 ± 0.31 | 5.39 ± 0.17 | – | –
PSVIQEIHQESGKAPSTDDATWAA [C10orf62] | 4.29 ± 0.33 | 4.66 ± 0.34 | – | –
PSYKVKVTGLNPKTKYILLMDIVP [TBX5] | 2.73 ± 0.28 | 2.83 ± 0.49 | – | –
PTELWPQEAVPLGLGLEDADWTQG [TEX19] | 4.56 ± 0.22 | 4.59 ± 0.22 | – | –
PTGEGSISHEEQKSVRLARELESR [CHCHD6] | 5.33 ± 0.17 | 5.35 ± 0.33 | – | –

Sequence | protein stability index [1] | protein stability index [2] | protein stability index (treatment: DMSO, c terminus: native) | protein stability index (treatment: MLN4924 1 uM, 8 h, c terminus: native)
PTGLLALQQIADFMTTNVPNVYPA [ADD1] | 2.1 ± 0.47 | 2.14 ± 0.25 | – | –
PTVPSAATSQPTPSQHSAHTSSQP [CCDC6] | 5.21 ± 0.13 | 5.22 ± 0.27 | – | –
PVGFGRRTDPNGDYIRRYLPVLRG [CRY1] | 3.14 ± 0.2 | 3.17 ± 0.39 | – | –
PVRAAASSPVTTLTQTMHDLAGLG [CDC25B] | 4.03 ± 0.24 | 3.93 ± 0.19 | – | –
PYIPPHAALCLEVTLKTAVDGPDL [FKBP8] | 2.32 ± 0.41 | 2.23 ± 0.2 | – | –
PYLRFGCLSCRLFYFKLTDLYKKV [CRY1] | 2.55 ± 0.45 | 2.32 ± 0.38 | – | –
PYTEKPRLWHTACASDEGEVIVFG [KLHDC2] | 2.51 ± 0.21 | 2.86 ± 0.23 | – | –
QAIDHGCEHICVNSDDSYTCECLE [MATN2] | 5.43 ± 0.098 | 5.14 ± 0.28 | – | –
QAKTHTDSSEKELEPEAAEEALEN [ACBD3] | 5.52 ± 0.2 | 5.65 ± 0.24 | – | –
QALGIPATECEFVGSLPVIVVGRL [LPCAT4] | 2.38 ± 0.58 | 2.29 ± 0.66 | – | –
QALLDVKNIAHQNKFGEDMPHPH [HDAC6] | – | – | 4.99 ± 0.18 | 5.08 ± 0.12
QAPIAAVLLMHMPAEQAFWCLVQI [TBC1D10A] | 3.25 ± 0.93 | 3.06 ± 0.31 | – | –
QAWFGFAGTPGYLSPEVLRKDPYG [CAMK2D] | 2.86 ± 0.79 | 2.94 ± 0.39 | – | –
QCLEDLVNHYSEVADGLCCVLTTP [SLA] | 2.11 ± 0.39 | 2.27 ± 0.36 | – | –
QDDISSSYTTTTTITAPPSRVLQN [SCD] | 4.71 ± 0.3 | 4.89 ± 0.3 | – | –
QEANARERNRMHGLNDALDNLRKV [NEUROD6] | 4.55 ± 0.14 | 4.56 ± 0.23 | – | –
QECPPDGRSFREEQCVSFNSHVYN [ADAMTSL2] | 4.08 ± 0.11 | 3.91 ± 0.2 | – | –
QEIIKTTEQLIEAVNNGDFEAYAK [CAMK2B] | 4.27 ± 0.17 | 4.26 ± 0.15 | – | –
QENEEKEQVANKGEPLALPLDAGE [BEX1] | 5.59 ± 0.27 | 5.48 ± 0.56 | – | –
QERPRPEPGRLGSSSPASVTTEQL [PXN] | 5.29 ± 0.3 | 5.12 ± 0.39 | – | –
QESDQTEEHESGIEQFSESHAIHV [IQUB] | 5.34 ± 0.18 | 5.45 ± 0.22 | – | –
